Measured values taken from FireProtDB (doi:10.1093/hmg/ddv370).
Values joined by “and” are separate entries in the source; they are usually repeats but may differ in a detail not shown here. Equal entries are not always repeated.

Conditions: Homo sapiens; pH 7.5; Thermal; CD; Tris-HCl; KCl; transition: 2; whole UniProt chain shown

B1: Guanylyl cyclase-activating protein 1 wild type, P43080 (protein)
chain: MGNVMEGKSVEELSSTECHQWYKKFMTECPSGQLTLYEFRQFFGLKNLSPSASQYVEQMFETFDFNKDGYIDFMEYVAALSLVLKGKVEQKLRWYFKLYDVDGNGCIDRDELLTIIQAIRAINPCSDTTMTAEEFTDTVFSKIDVNGDGELSLEEFIEGVQKDQMLLDTLTRSLDLTRIVRRLQNGEQDEEGADEAAEAAG
  Tm: 50.1 °C and 51.5 °C
